Measurements: patent publication US20060134788

System: T1, MJ1 integrase (phage phiFC1) (Enterococcus phage phiFC1)
T1 sequence: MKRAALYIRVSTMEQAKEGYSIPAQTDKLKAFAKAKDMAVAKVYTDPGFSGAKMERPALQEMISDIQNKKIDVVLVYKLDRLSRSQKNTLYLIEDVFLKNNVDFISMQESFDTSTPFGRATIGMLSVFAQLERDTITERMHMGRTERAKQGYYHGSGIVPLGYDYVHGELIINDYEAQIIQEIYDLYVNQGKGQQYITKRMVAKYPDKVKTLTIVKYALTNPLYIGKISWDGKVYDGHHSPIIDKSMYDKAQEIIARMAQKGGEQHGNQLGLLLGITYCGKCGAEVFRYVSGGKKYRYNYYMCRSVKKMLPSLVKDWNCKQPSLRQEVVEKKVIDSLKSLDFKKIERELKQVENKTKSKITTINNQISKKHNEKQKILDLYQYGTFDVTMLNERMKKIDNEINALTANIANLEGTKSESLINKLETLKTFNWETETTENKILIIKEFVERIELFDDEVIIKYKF
Experiment: cell_activity
Conditions: 396 cells without MJ1, FACS 72 h

Sequence	activity (fluorescent cells) (attB x attP integration in 293T cells)	activity (fluorescent cells) (attP x attB integration in 293T cells)
CGGCCATTGAATTAGGGTGTCGAATTTATCAAAGTAGTCAAATCAAATTTGGCAAAGTTACGTCCAGTCAACAAGTCGCTCAACGATTACTCCAAGAGATGAAGGGGCTGCAACAAGAACATTTAATTTGTATTTACTTGAATACCAAGAATGACATTATCCAACAGAAAACGATTTTCAAAGGATCACTGAATCAAAGTATTGCTCATCCACGCGAAATTTTTCGGGAAGCGGTTAAATATTCTTCTGCTCGCATACTATTAGCTCATAATCATCCATCTGGCAATCCG (double strand) [attB 290 bp]	1240	–
GAAGATCTTGTTCTCGAGCATAGTCTCCTTCAAGTTTTGTTATATCTGATAATAGAGACTTTTCTTTTTGTTGTAAACTATTGATTGACAAATCTGGTCCTCCTTTAAAATATATAATTAATATTGGTTTAATTATACCATTCTATAGGTAAGAACAGTAATATGACCAAATTTAAATATCTTTTTATGCACTAATCAAAGTTTTCCTTACAAGCATTTNTTCAATTACGAGTTGATTTCTTTTATTCAAATGACCATAGACAGCTAGTTCAGATTTTTCGGGTAGCATTAGTAACATATTTGCTAATTCGTATTTGGAGACGATACAGTTTATAGTTTCGTCCTGTGTTACTAATGAGAATCGAACTAGCATTTTTGGGTACATACTTAACATTCTAATCTTTTCAACTACTCCTACATAATTAGTTTTCATAATATCGGCCTCCTAGTAATACAATTATACCGAATGCATGTTCGTATTGTCTATAGGTTTGTATAAATGTAATATTTTAGGTATATGATTTTGTTTATTAGTGTAAATAACACTATGTACCTAAAATTTATATTTAATAATTACCTCATCATCAAATAGTTCTATACGTTCAACAAACTCTTTGATGATAAGGATTTTATTTTCTGTAGTTTCAGTTTCCCAATTAAAAGTTTTTAACGTTTCAAGCTTATTAATTAATGACTCACTTTTGGTACCTTCTAAGTTTGCTATATTGGCAGTTAACGC (double strand) [attP 739 bp]	–	1240
